From US20110171285A1, “Design of Fibrinogen and Fibrinogen Derived Products with Reduced Bacterial Binding by Using Modified Sequences of Fibrinogen Chains” (priority 2009, published 2011)
Like-named read-outs stand apart in the source and are kept apart here.

How the values were obtained:
[1] = target: recombinant ClfA229-545 (S. aureus clumping factor A, N2N3 domains), 6xHis tagged (Staphylococcus aureus) (UniProt Q53653)
[2] = target: recombinant ClfA229-545 (S. aureus clumping factor A, N2N3 domains), 6xHis tagged (Staphylococcus aureus) (UniProt Q53653); remark: listed apart in the source
[3] = target: human 15-mer C-terminal Fg γ-chain peptide (…) (human); assay: human 15-mer peptide
[4] = target: human fibrinogen (human) (UniProt P02671)
[5] = target: human 17-mer C-terminal Fg γ-chain peptide (…) (human); assay: human 17-mer peptide

recombinant ClfA229-545 (S. aureus clumping factor A, N2N3 domains), 6xHis tagged (Staphylococcus aureus), sequence (Q53653 229-545 limits assumed): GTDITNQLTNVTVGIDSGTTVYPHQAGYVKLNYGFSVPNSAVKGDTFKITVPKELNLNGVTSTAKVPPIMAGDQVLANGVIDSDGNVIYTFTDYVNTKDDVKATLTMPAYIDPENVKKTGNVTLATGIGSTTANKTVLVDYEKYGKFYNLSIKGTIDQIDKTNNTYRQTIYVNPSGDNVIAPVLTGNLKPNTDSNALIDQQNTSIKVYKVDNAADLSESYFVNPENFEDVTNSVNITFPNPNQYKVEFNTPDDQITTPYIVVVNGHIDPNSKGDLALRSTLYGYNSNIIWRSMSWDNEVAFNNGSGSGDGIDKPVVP
human fibrinogen (human), sequence (P02671 20-629 limits assumed, chain 1 of 3): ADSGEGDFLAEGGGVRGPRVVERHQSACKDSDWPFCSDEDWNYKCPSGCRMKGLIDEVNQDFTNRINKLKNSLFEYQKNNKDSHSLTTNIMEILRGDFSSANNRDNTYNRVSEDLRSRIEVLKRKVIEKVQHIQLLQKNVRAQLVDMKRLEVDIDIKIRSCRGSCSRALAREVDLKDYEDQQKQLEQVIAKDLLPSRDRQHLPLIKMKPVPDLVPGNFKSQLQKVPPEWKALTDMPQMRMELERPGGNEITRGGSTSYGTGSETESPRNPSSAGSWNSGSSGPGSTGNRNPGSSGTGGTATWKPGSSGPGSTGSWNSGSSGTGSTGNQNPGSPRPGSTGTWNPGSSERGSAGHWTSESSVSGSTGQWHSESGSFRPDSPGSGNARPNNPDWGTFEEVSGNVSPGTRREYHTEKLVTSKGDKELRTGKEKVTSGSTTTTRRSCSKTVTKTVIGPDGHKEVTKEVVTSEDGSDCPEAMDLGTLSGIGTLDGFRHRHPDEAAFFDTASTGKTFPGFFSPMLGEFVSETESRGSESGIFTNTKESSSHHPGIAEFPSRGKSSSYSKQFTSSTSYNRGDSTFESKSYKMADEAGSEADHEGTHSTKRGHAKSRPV
human fibrinogen (human), sequence (P02675 31-491 limits assumed, chain 2 of 3, further chain): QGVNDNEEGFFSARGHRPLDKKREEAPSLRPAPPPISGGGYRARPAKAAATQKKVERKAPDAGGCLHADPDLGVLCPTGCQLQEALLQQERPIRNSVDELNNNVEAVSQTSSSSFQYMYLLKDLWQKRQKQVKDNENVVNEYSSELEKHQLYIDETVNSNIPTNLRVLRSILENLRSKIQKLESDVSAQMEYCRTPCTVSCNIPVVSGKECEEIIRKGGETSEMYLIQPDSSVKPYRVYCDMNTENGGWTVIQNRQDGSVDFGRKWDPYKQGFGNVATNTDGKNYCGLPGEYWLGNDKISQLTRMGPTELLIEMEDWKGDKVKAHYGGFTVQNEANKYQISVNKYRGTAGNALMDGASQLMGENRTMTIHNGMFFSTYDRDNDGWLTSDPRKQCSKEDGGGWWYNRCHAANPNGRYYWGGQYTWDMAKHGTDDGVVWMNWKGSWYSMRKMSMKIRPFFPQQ
human fibrinogen (human), sequence (P02679 other isoform, or with tags, fused parts or gaps limits assumed, chain 3 of 3, further chain): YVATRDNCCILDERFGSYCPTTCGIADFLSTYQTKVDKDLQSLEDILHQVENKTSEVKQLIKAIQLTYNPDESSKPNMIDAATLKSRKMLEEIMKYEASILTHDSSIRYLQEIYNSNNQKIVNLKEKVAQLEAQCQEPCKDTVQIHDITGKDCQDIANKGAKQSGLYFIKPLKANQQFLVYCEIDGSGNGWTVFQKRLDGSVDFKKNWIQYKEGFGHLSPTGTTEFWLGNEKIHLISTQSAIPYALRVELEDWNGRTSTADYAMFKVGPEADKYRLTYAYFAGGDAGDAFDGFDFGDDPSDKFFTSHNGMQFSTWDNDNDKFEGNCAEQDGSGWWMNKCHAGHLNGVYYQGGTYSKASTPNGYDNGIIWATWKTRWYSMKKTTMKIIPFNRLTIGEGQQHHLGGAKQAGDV

sheep (ovine) 15-mer C-terminal Fg γ-chain peptide (…)
N [1]: 16.2 | ΔH [1]: 1340 | ΔS [1]: 20.4

human 15-mer C-terminal Fg γ-chain peptide (…)
N [2]: 1.29 | ΔH [2]: -3640 | ΔS [2]: 8.03

recombinant ClfA229-545 (S. aureus clumping factor A, N2N3 domains), 6xHis tagged (from UniProt Q53653 229-545)
Kd [3]: 40 µM | EC50 (read off the curve) [4]: 0.2 µM | Kd [5]: 23 µM
